Paper PMC314469, “Protein Interaction Networks by Proteome Peptide Scanning” (PLoS Biology, 2004)

T1: Yhr016c SH3 (YSC84_YEAST), P32793
T1 chain: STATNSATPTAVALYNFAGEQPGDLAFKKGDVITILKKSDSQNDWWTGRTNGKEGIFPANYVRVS

T2: Boi2 SH3 (BOI2_YEAST), P39969
T2 chain: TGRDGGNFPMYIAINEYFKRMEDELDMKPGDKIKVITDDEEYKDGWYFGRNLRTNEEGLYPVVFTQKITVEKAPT

T3: Rvs167 SH3 (RV167_YEAST), P39743
T3 chain: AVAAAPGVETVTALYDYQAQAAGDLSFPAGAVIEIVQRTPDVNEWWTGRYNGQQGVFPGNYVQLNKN

T4: Boi1 SH3 (BOI1_YEAST), P38041
T4 chain: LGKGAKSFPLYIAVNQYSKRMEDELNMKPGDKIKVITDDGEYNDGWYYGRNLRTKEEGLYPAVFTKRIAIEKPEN

T5: Yfr024 SH3 (LSB3_YEAST), P43603
T5 chain: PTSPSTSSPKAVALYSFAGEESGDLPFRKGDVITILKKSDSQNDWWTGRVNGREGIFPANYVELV

T6: Myo5 SH3 (MYO5_YEAST), Q04439
T6 chain: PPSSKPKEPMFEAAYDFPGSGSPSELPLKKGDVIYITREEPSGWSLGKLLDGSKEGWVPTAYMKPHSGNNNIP


Assays:
Experiment in all cases: SPOT array
[1] = molecular target: T1, Yhr016c SH3 (YSC84_YEAST), P32793
[2] = molecular target: T2, Boi2 SH3 (BOI2_YEAST), P39969
[3] = molecular target: T3, Rvs167 SH3 (RV167_YEAST), P39743
[4] = molecular target: T4, Boi1 SH3 (BOI1_YEAST), P38041
[5] = molecular target: T5, Yfr024 SH3 (LSB3_YEAST), P43603
[6] = molecular target: Sho1 SH3 (SHO1_YEAST), P40073
[7] = molecular target: T6, Myo5 SH3 (MYO5_YEAST), Q04439

Chain of Sho1 SH3 (SHO1_YEAST), P40073 (P40073 295-366): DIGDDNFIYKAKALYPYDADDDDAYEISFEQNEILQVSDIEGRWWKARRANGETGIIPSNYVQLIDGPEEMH

Row | normalised SPOT signal, Boehringer light units (BLU); mean over the file's lines of this peptide [1] | normalised SPOT signal, Boehringer light units (BLU); mean over the file's lines of this peptide [2] | normalised SPOT signal, Boehringer light units (BLU); mean over the file's lines of this peptide [3] | normalised SPOT signal, Boehringer light units (BLU); mean over the file's lines of this peptide [4] | normalised SPOT signal, Boehringer light units (BLU); mean over the file's lines of this peptide [5] | normalised SPOT signal, Boehringer light units (BLU); mean over the file's lines of this peptide [6] | normalised SPOT signal, Boehringer light units (BLU); mean over the file's lines of this peptide [7] | Binder
1 | 13.1 | 15.6 | 16 | 54.6 | 33.6 | 25.7 | 248 | AKIDKVSPEDPWVL [YJR158W 273-286]
2 | 12.2 | 12.9 | 39 | 117 | 14.9 | 23.6 | 121 | AKINKVSPEDPWVL [YDL245C 273-286]
3 | 14.3 | 9 | 21.2 | 62.8 | 0 | 163 | 60.3 | AGHIKTHPNSPTPG [YKL064W 452-465]
4 | 559 | 30.5 | 534 | 1420 | 1400 | 208 | 304 | AKDYRFNPAIPLRI [YLR073C 11-24]
5 | 47.2 | 16.6 | 294 | 2730 | 718 | 78.9 | 1740 | AFVPKRKPSLPQLA [YLR371W 185-198]
6 | 55.1 | 79.2 | 106 | 107 | 184 | 32.5 | 281 | AALVKFVPSKPMSV [YBR118W 397-410]
7 | 74.6 | 52.6 | 25.5 | 418 | 115 | 51.5 | 188 | AFYYKYYPVEPNSN [YFR020W 150-163]
8 | 16.1 | 15.8 | 69.2 | 133 | 6 | 59.5 | 86.7 | ADDLKYIPPIPQDF [YOR264W 26-39]
9 | 27.3 | 0 | 61.7 | 20.7 | 87.4 | 52.2 | 158 | AGMAKTKPDVPLSY [YLR216C 44-57]
10 | 17.7 | 0 | 17.9 | 106 | 0 | 26.3 | 133 | AGLYKLSPLYPFDV [YLR291C 296-309]
11 | 8.4 | 30.2 | 99.2 | 155 | 2 | 39.3 | 102 | AEIVKLTPKNPFYK [YGL056C 180-193]
12 | 7 | 3.3 | 14.9 | 466 | 48.8 | 18.4 | 176 | AISKKLGPDTPIKV [YOR219C 612-625]
13 | 15.9 | 30.4 | 102 | 33.8 | 98.8 | 23.3 | 101 | AGQERFAPLAPMYY [YNL093W 69-82]
14 | 0 | 42.3 | 4 | 925 | 44.4 | 173 | 389 | AERAKKAPSLPEGQ [YJR016C 376-389]
15 | 45.1 | 39.1 | 94.4 | 1440 | 233 | 63 | 195 | AGPRKYIPRAPAQG [YGL063W 287-300]
16 | 112 | 64.4 | 72.6 | 110 | 303 | 900 | 65 | AFWWKKNPKTPSDY [YKL189W 13-26]
